Test results as given in the nanobody polyreactivity screen of Harvey et al. (2022).

Test: yeast display, Sf9 membrane polyspecificity reagent, FACS + sequencing; frameworks hold sequencing errors
Method in brief: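 Nanobodies came from a synthetic yeast display library in Saccharomyces cerevisiae BJ5465, induced with galactose for 36–48 hours and stained for 1 hour at 4 °C with 10% biotinylated, detergent-solubilized Sf9 membrane reagent. Cells were enriched on streptavidin microbeads and then FACS-sorted, with low and high (top ~1%) gates set on anti-HA fluorescence for expression and streptavidin fluorescence for reagent binding. Each polyreactivity label reflects the gate a clone came from. Genes were amplified by colony PCR, sequenced by MiSeq 2 × 250 and filtered by CDR length.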

Sequence | polyreactivity (PSR sort gate)
QFQLVESGGGLVQAGGSLRLSCAASGFIFQRYAMGWYRQAPGKERELVAAINFSGGSTYYADSVKGRFTISRDNAKNTVYLQMNSLKPEDTAVYYCNTGNITQTKSIFDYWGQGSQVTVSS | high polyreactivity
QVQLVESGGGLVQAGGRLRLSCAASGRTSFDYSMGWYRQAPGKDRELVAAITSTGGSTYYADSVKGRFTISRDNAKYTVYLQMNSLKPEDTAVYYCAAVWFTHWGQYQVLEVLYDYWGQGTQVTVSS | low polyreactivity
QVQLVETAGGLVQARGSLRLSCAASGFIFRYNAMGWYRQERGKERELVAAINYRGGSTYYADSVKGRFTISRDNAKNTVYLQMNSLKPEDTAVYYCAVLTYRGRFEYWGQGTQVTVSS | high polyreactivity
QVQLVESGGGLFQAAGSLRLSCAASGLTFAYNAMGWYRQAPGKERELDAEISKRGGSTFYADSVKGRFTLSHVNAKNTVYLQMNSLKPEDTAVYYCARGSYPYRSFWLTSDDWGQGTQVTVSS | high polyreactivity
QVQLVESGGGLVQAGGSLRLSCAASGRIFARNVMGWYRQAPGKERELVAGISRSGGTTYYADSVKGRFTISRDNAKNTVYLQMNSLKPEDTAVYYCAAYYFLENDYWGPGTQVTVSS | high polyreactivity
QVQLVESGGGLVQEGGSLRLSCAASGFTFARYAMGWYRQSPGKERELVARISSRGGSTNFADSVKGRFTISRDNAKNTVYLQMNSLKPEDTAVYYCAKYYSSKYYYWGQGTQVTVSS | high polyreactivity
QVQLQESGGGLVQAGGSLRLSCAASGSILFSTLMGWSRQAPGKERELVATITTGTFTNYAGSVKGRFTISRDNAENTVYLQMNSLRPEDTAVYYSADYANHKAGFYYWGQGTQVTVSS | high polyreactivity
QVQLVESGGGLVQAGGSLRLSCAASGFIFQTNVMGWYRQAPGKERELVAAISSGDSTYYADSVKGRFTISRDNAKNTVYLQLNSLKPEDTAVYYCAADVLGTTTTVGGFNYWGQGTQVTVSS | low polyreactivity
QVQLVESGGGLVQAGGSLRLSCAASGYTFRAYVMGWYRQAPGKERELVAGITRRGGTTYYADSVKGRFTISRDNAKNTVYLQMNSLKPEDTAVYYCNAVFRSGSIPYDSWGQGTQVTVSS | high polyreactivity
QVQLVESGGGLVQAGGSLRLSCAASGRIFGVYAMGWYRQAPGKERELVAAIRGGGSTKYADSVKGRFTISRDNAKNTVYLQMNSLKPEDTAVYYCAARKRYYKHDYWGQGTQVTVSS | low polyreactivity
QVQLVESGGGLLQAGGSLRLSCAASGRTLWIYAMGWYRQAPGKERELVASITTRGGSTYYADSVKGRFTISRDNAKNTVYLQMNSLKPEDTAVYYCARVSGARYTSYDYWGQGTQVTVSS | high polyreactivity
QVQLVESGGGLVQAGGSLRLRSAASGGTIARYAMGWYRQATGKERELVAAITKSRDLTYYADSVKGRFTISRDSAKNTVYLQMNSLKPEDTAVYYCARPPSTGYQGGYDYWGQGTQVTVSS | high polyreactivity
QVQLVESGGGLVQAGGSLRLSCAASGFIFVQYAMGWYRQAPGKERELVAAITKSGGRTYYADSVKGRFTISRDNAKNTVYLQMNSLKPEDTAVYYCAALGNGNFPTVDYWGQGTQVTVSS | high polyreactivity
QVQLVESAGGLVQAGGSLRLSCAASGSTFAYNVMGWYRQAPGKERELVASISSSSGSTYYADSVKGRFTISRDNAKNTVYLQMNSLKPEDTAVYYCATYPAYTEYDYWGQGTQVTVSS | high polyreactivity
QVHLVESGGGLVQAGGSLRLSCAASGSIFYWNAMGWYRQAPGKESELVATISSRGGRTSYADSVKGRFTLSRDNAKNTVYLQMNSLQPEDTAVDYCAKSIDGWYWRRRRYDYWGQGTQVTVSS | low polyreactivity
QVQLVESGGGLVQAGGTLRLTCAASGRIFNSNDMRWYRQAPGKERELVASISPNTGTTYYADSVKGRFTISRDNAKNTVYLQMNSLKPEDTAVYYCAARGVYYQDGLVTGEAEYGYWGQGTQVTVSS | low polyreactivity
QVQLVESGGGLVQAGGSLRLSCAASGSIFKRNAMGWYRQAPGKERELVAAITGGGRTNYADSVKGRFTISRDNAKNTVYLQMNSLNPEDTAVYYCAADWYGVGLYYTWTRHDYWGQGTQVTVSS | low polyreactivity
QVQLVESGGGLVQAGGSLRLSCAATGSTLVPNAMGWYRQAPGKERELVAAITRGTITHYADSVKGRFTISRDNAKNTVYVQMNSLKPEDTAVYYCNADVSLDDYDYWGQGTQVTVSS | low polyreactivity
QVQLVESGGGLLQAGGSLRLSCAASRSTFFWYAMGWYRQAPGKERELVAANSKTGGSTYYADSVKGRFTISRDNAKNTVYLQMNSLKPEDTAVYYCARDYSWYYYGSQLFAHDYWGQGTQVTVSS | low polyreactivity
QVQLVESGGGLVQAGGSLRLSCAASGRIIFHNAMGWYRQAPGKERELVASITSGDGTYYSDSVKGRFTISRDNAKNTVYLQMNSMKPEDTAVYYCAAEPGSIAYYYNRVGLYYWGQGTQVTVSS | low polyreactivity
QVQLVESGGGLVQAGGSLRLSCAASGFTFGSYARGWYRQAPGKERELVAAISWGGGSTYYADSVKGRFTISRDNAKNTVYLQMNSLKPEDTAVYYCNADAISSFGYWGQGTQVTVSS | high polyreactivity
QVQLVESGGGLVQAGGSLRLSCAASGRIFRHNTMGWYRQAPGNESELVAGITASGGDTYYADSVTGRFTISRDNAKNTVYLQMNSLNPEDTAVYDCATSQYGYRSWPGLYYWGQGTQVTVSS | low polyreactivity

Sequence | polyreactivity (PSR sort gate)
QVQLVESGGGLVQAGGSLRLSCAASGSIFARYTMGGYRPAPGKASELVAAISTSGSRTYYADSVKGRFTISRDNAKKTVYLQRYSLKPEDTAVYFCAARNGGRYAPGLDYWGQGTQVTVSS | high polyreactivity
QDQLVDSGGGLVQAGGSLRLSCAASGRTFSPNTMGWYRQAPGKEREFVAAITASGDSTYYADSVKGRFTISRDNEKNTVYLQMNSLKPEDTAVYYCATDSNWYWGFNYWGQGTQVTVSS | low polyreactivity
QVQLVESGGGLVQAGGSLRLSCAASGSTFGSNAMGWYRQAPGKERELVAAIRWSGGSTYYADSVKGRFTISRDNAKNTVYLQMNSLKPEDTAVYYCAGSFFQYNRRFNYWVQGTQVTVSS | high polyreactivity
QVQLVESGGGLVQAGGSLRLSCAASGSTFHRNAMGWYRQAPGKERELVAAITSGGSTNYADSVKGRFTISRDNAKNTVYLQMNSLKPEDTAVYYCAKDYRHYNRGWYDYWGQGTQVTVSS | low polyreactivity
QVQLVESGGGLVQAGGSLRLTCAASGRTFWYYAMGWYRQAPGKERELVAASYYSGDGTYYADSVKGRFTISRDNAKNTVYLQMTSLKPEDTALYYGAAEWSDPTLPTAWSEYEYWGQGTHVTVSS | high polyreactivity
QVQLVESGGGLVQAGGSLRLSCAASGLSLDVNVMGWYRPAPGKERELVAGIRSDSRTNYADSVKGRFTISRDNAKNTVYLQMNRLKPEDTAVYYCATRDKYISYYTYPYYSWGQGTQVTVSS | low polyreactivity
QVQLVESGGGLVQAGGSLRLSCAASGSTLALYTMGWYRQAPGKERELVAAISKNGGRTYYADSVKGRFTISRDNAKNTVYLKMNSLKPEDTAVYYCAAASGSYRGYDYWGQGTQVTVSS | high polyreactivity
QVQLVESGGGLVQAGGSLRLSCAASGRIFGGYAMGWYRQAPGKERELVAAITSAGGTNYADSVKGRFTISRDNAKNTVYLQMNSLKPEDTAVYYCAALRDRDITVYYDTGRMYYWGQGTQVTVSS | low polyreactivity
QVQLVESGGGLVQAGGSLRLSCAASGFLFPKNAMGWSRQAPGTEMEWVAAISSGGARTYYADSVKGRFTISRDNAQNSVYEQMNSLKPEDTAVYYCAARTSPFWRGGGLDYWGQGTQVTVSS | high polyreactivity
QVQLVETGGGLVQAGGSLRLSCAASGYTFDGYAMGWYRQAPGKERELVAAINSGGGTYYADSVKGRFTISRDNAKNTVYLLMNSQKPEDTAVYYCAAERVYSDMDYWGQGTQVTVSS | low polyreactivity
QVQLVESGGGLVQAGGSLRLSCAASGITFPGNAMGWYRQAPGKERDLVAVISSGTSTNYADSVKGRFTISRDNAKNTVYLHMNSLKPEDTAVYYCAKATSSFYHYRYDYWGQGTQVTVSS | low polyreactivity
QVQLVESGGGLVQAGGSLRLSCAASGSTFVINDMGWYRQAPGKERELVAAITWGSGSTYYADSVKGRFTISRDNAKNTVYLQMNSLKPEDTAVYYCAADVYFGLVGYYAEYNDYWGQGTQVNVSS | low polyreactivity
QFQLVESGGGLVQAGGSLRLSCAASGFTFSGYAMGWYRQAPGKERELVAAINWRGDSTYYADSVKGRFTISRDNAKNTVYLHMNSLKPEDTAVYYCYVVLGPQRYSTDYGYWGQGTQVTVSS | high polyreactivity
QVQLVESGRGLVQAGGSLRLRCAASGRNIRAYAMGCYRQAPGTERDLVAAITWSGGGTYYADSVKGRFTISRDNAKNTVYLQMTSLKPEDTAVYYCAAVTTLRPSWKRYYYWGQGTQVTVSS | high polyreactivity
QVQLVESGGGLVQAGGSLRLSCAASGRTFGTNTMGWYRQAPGKERELVAAIRRGGGTNYADSVKGRFTISRDNAKNTVYLQMNSLKPEDTAVYYCAAVRWNTGVGYYYWGQGTQVTVSS | high polyreactivity
QVQLVESGGGLVQAGGRLRLSCAASGSSFVAYTMGWYRQAPGKERELVAAISRGGSTNYADSVKGRFTISRDNAKNTVYLQMNSLKPEDTAVYYCAAKVWDGQLLYYWGQGTQVTVSS | low polyreactivity
QVQLVESGGGLVQAGGSLRLSCAASGSIFWNAMGWNKQAPGKERELVAAISWSGTRTYYADSVKGRFTISRDNAKNTVYLQMNSLKPEDTAVYYCNAVQWNAYYYWGQGTQVTVSS | high polyreactivity
QVQLVESGGGLVQAGGSLRLSCAASGFTFTRYTMGWYRQAPGKERELVAHITSGDSTNYADSVKGRFTISRDNAKNTVYLQMNSLKPEDTAVYYCNAEVKGFFYDYDYWGQGTQVTVSS | low polyreactivity
QVQLVESGGGLVQAGGSLRLSCAASGRIFGKYAMGWYRQAPGKERELVAAIRITGGSTYYADSVKGRFTISRDNAKNTVYLEMNSLKPEDTAVYYCAAVYLKTYYWGQGTQVTVSS | high polyreactivity
QVQLLESGVGLVQAGGTLRLSCAASGRTFYRNAMGWYRQATGKEREMVAAISQSGGSTYYADSVKGRFTISRDNAKNTVYLQMNSLKPEDTAVYYCAAGNSRRVGMDYWGQGTQVTVSS | high polyreactivity
QVQLVESGGGLVQAGGSLRLSCAASGGTFNTYAMGWYRPAPGKERELVAAITSSGGSTFYADSVKWRFTISRDNAKNTVYLQMNSLKPEDTAVYYCAAKSYWTIVYRHPGYYYWGQGTQVTVSS | low polyreactivity
